Measured values taken from patent publication US20210324111A1 (UCB, published 2021).
Where a chain is given by its changes, count along the chain named. Blank lines part the entries; values can stand above or below the binder they belong to.

Target: T1, Human serum albumin (human, UniProt P02768 25-609)
T1 construct: Bought purified protein, injected as the analyte in SPR; also called HSA; Human albumin, ChromPure (Jackson ImmunoResearch)
Assay: SPR (Biacore), antibody captured on the chip, HSA as analyte, 25 C, 1:1 model

Kd: 1.61 nM
koff: 0.00025 s⁻¹
kon: 156000 M⁻¹ s⁻¹
B1: 645gL4gH5 Fab-A26 BYbe wt (bispecific antibody, part only; not given: A26 dsscFv, linker, CH1, CL, V domains shown, not shown: another chain or arm of the molecule; a dimerising Fc or GST; small tags and cut ends)
VH: EVQLLESGGGLVQPGGSLRLSCAVSGIDLSNYAINWVRQAPGKQLEWIGIIWASGTTFYATWAKGRFTISRDNSKNTVYLQMNSLRAEDTAVYYCARTVPGYSTAPYFDLWGQGTLVTVSS
VL: DIQMTQSPSSVSASVGDRVTITCQSSPSVWSNFLSWYQQKPGKAPKLLIYEASKLTSGVPSRFSGSGSGTDFTLTISSLQPEDFATYYCGGGYSSISDTTFGGGTKVEIK

Kd: 1.23 nM
koff: 0.000186 s⁻¹
kon: 151000 M⁻¹ s⁻¹
B2: 645CDR-497FW Fab-A26 ds HL BYbe (bispecific antibody, part only; not given: A26 dsscFv, linker, CH1, CL, V domains shown, not shown: another chain or arm of the molecule; a dimerising Fc or GST; small tags and cut ends)
VH: EVQLVESGGGLVKPGGSLRLSCAASGIDLSNYAINWVRQAPGKGLEWVGIIWASGTTFYATWAKGRFTISRDDSKNTLYLQMNSLKTEDTAVYYCTTTVPGYSTAPYFDLWGQGTLVTVSS
VL: B1 VL with D1A, M4L, V11L, G103Q

Kd: 1.52 nM
koff: 0.000227 s⁻¹
kon: 150000 M⁻¹ s⁻¹
B3: 645CDR-2109FW Fab nh (Fab, V domains shown)
VH: B2 VH with V48I, R71V, D73K, S74A, T77S, L78A, K86R, T87A, T97R
VL: B1 VL with V11L, A44V, S66T, F72Y, F84V, Y88F, G103Q, V107L
notes: also called 2109FW/645CDR Fab nh; #3

Kd: 4.74 nM
koff: 0.000651 s⁻¹
kon: 137000 M⁻¹ s⁻¹
B4: 645CDR-2109FW Fab-A26 ds HL BYbe (bispecific antibody, part only; not given: A26 dsscFv, linker, CH1, CL, V domains shown, not shown: another chain or arm of the molecule; a dimerising Fc or GST; small tags and cut ends)
VH: B2 VH with V48I, R71V, D73K, S74A, T77S, L78A, K86R, T87A, T97R
VL: B1 VL with V11L, A44V, S66T, F72Y, F84V, Y88F, G103Q, V107L

Kd: 4.63 nM
koff: 0.000601 s⁻¹
kon: 130000 M⁻¹ s⁻¹
B5: 645CDR-497FW Fab nh (Fab, V domains shown)
VH: B2 VH
VL: B1 VL with D1A, M4L, V11L, G103Q
notes: also called 497FW/645CDR Fab nh; 645CDR -497FW/645CDR Fab nh
